In series [1] the target is T1, bed-3 (F25H8.6) (Caenorhabditis elegans) (UniProt Q19787).
T1 sequence: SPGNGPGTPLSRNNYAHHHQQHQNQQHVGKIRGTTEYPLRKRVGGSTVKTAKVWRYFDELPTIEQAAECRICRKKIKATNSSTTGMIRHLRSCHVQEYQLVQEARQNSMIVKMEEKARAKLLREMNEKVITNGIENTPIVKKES

Series [2] has as its target T2, ztf-27 (T09F3.1) (Caenorhabditis elegans) (UniProt G5EDA0).
T2 sequence: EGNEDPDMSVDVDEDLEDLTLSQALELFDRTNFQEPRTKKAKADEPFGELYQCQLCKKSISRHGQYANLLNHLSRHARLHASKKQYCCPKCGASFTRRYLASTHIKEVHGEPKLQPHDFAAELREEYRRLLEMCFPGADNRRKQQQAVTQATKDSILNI

Series [3] concerns the target T3, T22C8.4 (T22C8.4) (Caenorhabditis elegans) (UniProt Q22677).
T3 sequence: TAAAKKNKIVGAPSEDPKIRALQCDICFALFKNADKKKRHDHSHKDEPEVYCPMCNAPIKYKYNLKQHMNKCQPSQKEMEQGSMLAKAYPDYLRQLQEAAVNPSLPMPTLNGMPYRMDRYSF

Series [4] has as its target T4, K11D2.4 (K11D2.4) (Caenorhabditis elegans) (UniProt G5EBU1).
T4 sequence: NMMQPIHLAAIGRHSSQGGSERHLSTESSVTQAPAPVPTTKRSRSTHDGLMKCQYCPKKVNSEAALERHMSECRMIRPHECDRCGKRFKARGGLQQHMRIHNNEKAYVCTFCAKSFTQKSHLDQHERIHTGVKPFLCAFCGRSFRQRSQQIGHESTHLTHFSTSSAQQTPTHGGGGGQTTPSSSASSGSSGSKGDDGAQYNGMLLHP

Series [5] concerns the target T5, M03D4.4 (M03D4.4) (Caenorhabditis elegans) (UniProt Q21494).
T5 sequence: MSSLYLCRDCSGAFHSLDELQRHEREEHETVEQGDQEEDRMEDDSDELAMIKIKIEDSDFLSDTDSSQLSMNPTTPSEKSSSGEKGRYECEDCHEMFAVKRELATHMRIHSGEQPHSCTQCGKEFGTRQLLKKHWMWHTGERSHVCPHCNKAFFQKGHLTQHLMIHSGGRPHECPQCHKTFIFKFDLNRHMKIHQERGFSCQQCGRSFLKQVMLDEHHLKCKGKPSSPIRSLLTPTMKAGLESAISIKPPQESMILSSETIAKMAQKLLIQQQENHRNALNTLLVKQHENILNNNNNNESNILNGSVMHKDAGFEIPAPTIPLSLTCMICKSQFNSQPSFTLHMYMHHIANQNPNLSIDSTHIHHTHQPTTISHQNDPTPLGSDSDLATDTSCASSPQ

The target of series [6] is T6, F55C5.11 (F55C5.11) (Caenorhabditis elegans) (UniProt Q1ZXU0).
T6 sequence: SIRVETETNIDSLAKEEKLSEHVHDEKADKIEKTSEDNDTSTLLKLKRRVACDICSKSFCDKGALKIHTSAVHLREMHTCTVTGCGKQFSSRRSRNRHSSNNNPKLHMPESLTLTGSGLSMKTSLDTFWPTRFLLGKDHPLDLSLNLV

Series [7] addresses atf-7 (C07G2.2) (Caenorhabditis elegans) (UniProt Q86MD3).

Chain of atf-7 (C07G2.2) (Caenorhabditis elegans) (Q86MD3 339-508): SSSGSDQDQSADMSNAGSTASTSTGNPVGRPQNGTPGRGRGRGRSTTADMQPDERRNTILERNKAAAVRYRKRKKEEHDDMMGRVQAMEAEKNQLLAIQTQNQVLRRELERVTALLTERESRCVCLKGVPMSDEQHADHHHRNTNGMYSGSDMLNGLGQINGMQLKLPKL

In turn, “AGTCTCGA (double strand) [8-mer AGTCTCGA]” yielded a binding signal (PBM E-score (-0.5 to 0.5)) in series [1] of 0.494. “ACACCATA (double strand) [8-mer ACACCATA]” returned a binding signal (PBM E-score (-0.5 to 0.5)) in series [2] of 0.479. “AGCAGGGG (double strand) [8-mer AGCAGGGG]”: in series [3], the binding signal (PBM E-score (-0.5 to 0.5)) is 0.499. On to “CGAAAAAA (double strand) [8-mer CGAAAAAA]”, for which the binding signal (PBM E-score (-0.5 to 0.5)) in series [4] turned out to be 0.495.

In the case of “CATGCATG (double strand) [8-mer CATGCATG]”, in series [5], the binding signal (PBM E-score (-0.5 to 0.5)) came to 0.498. “AAAAAACA (double strand) [8-mer AAAAAACA]” displayed a binding signal (PBM E-score (-0.5 to 0.5)) in series [4] of 0.495. As to “GGGTGACA (double strand) [8-mer GGGTGACA]”, in series [6], the binding signal (PBM E-score (-0.5 to 0.5)) came to 0.494. In series [2], “TGCACCAA (double strand) [8-mer TGCACCAA]” had a binding signal (PBM E-score (-0.5 to 0.5)) of 0.488.

“ACAAAAAA (double strand) [8-mer ACAAAAAA]” came in with a binding signal (PBM E-score (-0.5 to 0.5)) in series [4] of 0.494. For the sequence “CAGCAGGG (double strand) [8-mer CAGCAGGG]”, the binding signal (PBM E-score (-0.5 to 0.5)) in series [3] is 0.494.

“TGGTGACA (double strand) [8-mer TGGTGACA]” gave a binding signal (PBM E-score (-0.5 to 0.5)) in series [6] of 0.487.

Sequence “ATGCATGC (double strand) [8-mer ATGCATGC]” registered a binding signal (PBM E-score (-0.5 to 0.5)) in series [5] of 0.491. On the same count and under the same terms, the figure for “GATCATGC (double strand) [8-mer GATCATGC]” is 0.493. For the sequence “TGGTGTAA (double strand) [8-mer TGGTGTAA]”, in series [2], the binding signal (PBM E-score (-0.5 to 0.5)) stood at 0.48. On the same count and under the same terms, the figure for “GTGCACCA (double strand) [8-mer GTGCACCA]” is 0.484. “CCTCGAGA (double strand) [8-mer CCTCGAGA]” showed a binding signal (PBM E-score (-0.5 to 0.5)) in series [1] of 0.492. “GTCATGCA (double strand) [8-mer GTCATGCA]” displayed a binding signal (PBM E-score (-0.5 to 0.5)) in series [5] of 0.495. The sequence “GTGACAAA (double strand) [8-mer GTGACAAA]” had a binding signal (PBM E-score (-0.5 to 0.5)) in series [6] of 0.484. The sequence “TACACCAA (double strand) [8-mer TACACCAA]” showed a binding signal (PBM E-score (-0.5 to 0.5)) in series [2] of 0.483. On to “CTCGAGAC (double strand) [8-mer CTCGAGAC]”, for which, in series [1], the binding signal (PBM E-score (-0.5 to 0.5)) worked out at 0.497. Turning to “TCATGCAA (double strand) [8-mer TCATGCAA]”, the binding signal (PBM E-score (-0.5 to 0.5)) in series [5] was 0.493. Regarding “AATAAAAA (double strand) [8-mer AATAAAAA]”, in series [4], the binding signal (PBM E-score (-0.5 to 0.5)) was 0.496. Turning to “CACGTCAC (double strand) [8-mer CACGTCAC]”, the binding signal (PBM E-score (-0.5 to 0.5)) in series [7] was 0.496. The sequence “TGCATGAA (double strand) [8-mer TGCATGAA]” gave a binding signal (PBM E-score (-0.5 to 0.5)) in series [5] of 0.495.

“ATGTGACA (double strand) [8-mer ATGTGACA]”: the binding signal (PBM E-score (-0.5 to 0.5)) in series [6] was found to be 0.489. “TACACCCA (double strand) [8-mer TACACCCA]”: the binding signal (PBM E-score (-0.5 to 0.5)) in series [2] was found to be 0.477. In series [1], “ACTCCCGA (double strand) [8-mer ACTCCCGA]” showed a binding signal (PBM E-score (-0.5 to 0.5)) of 0.49.

Sequence “AGGTGACA (double strand) [8-mer AGGTGACA]” came in with a binding signal (PBM E-score (-0.5 to 0.5)) in series [6] of 0.486. Consider “ACTCTCGA (double strand) [8-mer ACTCTCGA]”, for which the binding signal (PBM E-score (-0.5 to 0.5)) in series [1] is 0.49. “GCTCTCGA (double strand) [8-mer GCTCTCGA]”: the binding signal (PBM E-score (-0.5 to 0.5)) in series [1] was 0.491. Regarding “AAAAAAGA (double strand) [8-mer AAAAAAGA]”, in series [4], the binding signal (PBM E-score (-0.5 to 0.5)) came to 0.495.

For “ACACCAAT (double strand) [8-mer ACACCAAT]”, the binding signal (PBM E-score (-0.5 to 0.5)) in series [2] is 0.478. On to “ACGCATGA (double strand) [8-mer ACGCATGA]”, for which the binding signal (PBM E-score (-0.5 to 0.5)) in series [5] stood at 0.495. In series [5], “GTGCATGA (double strand) [8-mer GTGCATGA]” registered a binding signal (PBM E-score (-0.5 to 0.5)) of 0.494. “CGCATGAA (double strand) [8-mer CGCATGAA]” displayed a binding signal (PBM E-score (-0.5 to 0.5)) in series [5] of 0.491. “CTCGAGAA (double strand) [8-mer CTCGAGAA]”: the binding signal (PBM E-score (-0.5 to 0.5)) in series [1] turned out to be 0.491. As for “AATGGTGT (double strand) [8-mer AATGGTGT]”, the binding signal (PBM E-score (-0.5 to 0.5)) in series [2] was 0.477. The sequence “TCCATGCA (double strand) [8-mer TCCATGCA]” registered a binding signal (PBM E-score (-0.5 to 0.5)) in series [5] of 0.491. The same measure, in the same setting: the figure for “ATGCATGA (double strand) [8-mer ATGCATGA]” is 0.499. The sequence “GATCTCGA (double strand) [8-mer GATCTCGA]” yielded a binding signal (PBM E-score (-0.5 to 0.5)) in series [1] of 0.493.

In series [2], “TGCGCCAA (double strand) [8-mer TGCGCCAA]” displayed a binding signal (PBM E-score (-0.5 to 0.5)) of 0.478. In series [1], “ATCTCGAG (double strand) [8-mer ATCTCGAG]” returned a binding signal (PBM E-score (-0.5 to 0.5)) of 0.497. The sequence “TCCCGAGA (double strand) [8-mer TCCCGAGA]” yielded a binding signal (PBM E-score (-0.5 to 0.5)) in series [1] of 0.493. In series [7], “ACGTCACT (double strand) [8-mer ACGTCACT]” returned a binding signal (PBM E-score (-0.5 to 0.5)) of 0.496. In series [1], “TCCCGGGA (double strand) [8-mer TCCCGGGA]” had a binding signal (PBM E-score (-0.5 to 0.5)) of 0.491. For “GGTGTCAC (double strand) [8-mer GGTGTCAC]”, the binding signal (PBM E-score (-0.5 to 0.5)) in series [6] was found to be 0.486. The sequence “AGTGTCAC (double strand) [8-mer AGTGTCAC]” showed a binding signal (PBM E-score (-0.5 to 0.5)) in series [6] of 0.487. Regarding “AAAAAAGT (double strand) [8-mer AAAAAAGT]”, the binding signal (PBM E-score (-0.5 to 0.5)) in series [4] came out at 0.494.

In the case of “ATACGTCA (double strand) [8-mer ATACGTCA]”, in series [7], the binding signal (PBM E-score (-0.5 to 0.5)) was 0.494. The sequence “AATGCATG (double strand) [8-mer AATGCATG]” displayed a binding signal (PBM E-score (-0.5 to 0.5)) in series [5] of 0.494. In the case of “ATGGTGTG (double strand) [8-mer ATGGTGTG]”, the binding signal (PBM E-score (-0.5 to 0.5)) in series [2] stood at 0.477. In the case of “CGGTGACA (double strand) [8-mer CGGTGACA]”, the binding signal (PBM E-score (-0.5 to 0.5)) in series [6] was determined as 0.488. As for “ACATGCAT (double strand) [8-mer ACATGCAT]”, in series [5], the binding signal (PBM E-score (-0.5 to 0.5)) was determined as 0.491. Regarding “GGTCTCGA (double strand) [8-mer GGTCTCGA]”, the binding signal (PBM E-score (-0.5 to 0.5)) in series [1] turned out to be 0.491. “GCATGGAA (double strand) [8-mer GCATGGAA]” yielded a binding signal (PBM E-score (-0.5 to 0.5)) in series [5] of 0.491. In the case of “ATGGTGTA (double strand) [8-mer ATGGTGTA]”, the binding signal (PBM E-score (-0.5 to 0.5)) in series [2] amounted to 0.485. As for “ACGTCACC (double strand) [8-mer ACGTCACC]”, the binding signal (PBM E-score (-0.5 to 0.5)) in series [7] was found to be 0.496. “GTGTGACA (double strand) [8-mer GTGTGACA]” displayed a binding signal (PBM E-score (-0.5 to 0.5)) in series [6] of 0.486. For the sequence “CTCGAGAG (double strand) [8-mer CTCGAGAG]”, the binding signal (PBM E-score (-0.5 to 0.5)) in series [1] stood at 0.493. On the same count and under the same terms, the figure for “GATCCCGA (double strand) [8-mer GATCCCGA]” is 0.49. Take “TGGTGCAA (double strand) [8-mer TGGTGCAA]”: in series [2], the binding signal (PBM E-score (-0.5 to 0.5)) was 0.483. Take “TACGCCAA (double strand) [8-mer TACGCCAA]”: the binding signal (PBM E-score (-0.5 to 0.5)) in series [2] was found to be 0.48. Consider “GTGTCACA (double strand) [8-mer GTGTCACA]”, for which the binding signal (PBM E-score (-0.5 to 0.5)) in series [6] stood at 0.488. In series [6], “GGTGACAC (double strand) [8-mer GGTGACAC]” came in with a binding signal (PBM E-score (-0.5 to 0.5)) of 0.496.

For “ATCATGCA (double strand) [8-mer ATCATGCA]”, the binding signal (PBM E-score (-0.5 to 0.5)) in series [5] is 0.497. Sequence “CTGTCACC (double strand) [8-mer CTGTCACC]” yielded a binding signal (PBM E-score (-0.5 to 0.5)) in series [6] of 0.487. On the same count and under the same terms, the figure for “TGTGACAA (double strand) [8-mer TGTGACAA]” is 0.485. On to “TCTCGAGA (double strand) [8-mer TCTCGAGA]”, for which the binding signal (PBM E-score (-0.5 to 0.5)) in series [1] is 0.499. As for “ATGGTGCA (double strand) [8-mer ATGGTGCA]”, the binding signal (PBM E-score (-0.5 to 0.5)) in series [2] is 0.487. Turning to “GGTGACAA (double strand) [8-mer GGTGACAA]”, the binding signal (PBM E-score (-0.5 to 0.5)) in series [6] was 0.487.
